Measured values as given in the supplement of paper PMC12458215.
± gives the uncertainty stated by the source.

System: HEK293T
Assay: plasma membrane surface immunostaining intensity (anti-HA, deep receptor scanning) (arbitrary fluorescence units); higher = higher plasma membrane expression

Sequence	plasma membrane surface immunostaining intensity (GPCR class: A)	plasma membrane surface immunostaining intensity (GPCR class: A (Olfactory))	further results
MGHNGSWISPNASEPHNASGAEAAGVNRSALGEFGEAQLYRQFTTTVQVVIFIGSLLGNFMVLWSTCRTTVFKSVTNRFIKNLACSGICASLVCVPFDIILSTSPHCCWWIYTMLFCKVVKFLHKVFCSVTILSFPAIALDRYYSVLYPLERKISDAKSRELVMYIWAHAVVASVPVFAVTNVADIYATSTCTEVWSNSLGHLVYVLVYNITTVIVPVVVVFLFLILIRRALSASQKKKVIIAALRTPQNTISIPYASQREAELHATLLSMVMVFILCSVPYATLVVYQTVLNVPDTSVFLLLTAVWLPKVSLLANPVLFLTVNKSVRKCLIGTLVQLHHRYSRRNVVSTGSGMAEASLEPSIRSGSQLLEMFHIGQQQIFKPTEDEEESEAKYIGSADFQAKEIFSTCLEGEQGPQFAPSAPPLSTVDSVSQVAPAAPVEPETFPDKYSLQFGFGPFELPPQWLSETRNSKKRLLPPLGNTPEELIQTKVPKVGRVERKMSRNNKVSIFPKVDS [GPR176]	6400 ± 100		
MLTLTRIRTVSYEVRSTFLFISVLEFAVGFLTNAFVFLVNFWDVVKRQALSNSDCVLLCLSISRLFLHGLLFLSAIQLTHFQKLSEPLNHSYQAIIMLWMIANQANLWLAACLSLLYCSKLIRFSHTFLICLASWVSRKISQMLLGIILCSCICTVLCVWCFFSRPHFTVTTVLFMNNNTRLNWQIKDLNLFYSFLFCYLWSVPPFLLFLVSSGMLTVSLGRHMRTMKVYTRNSRDPSLEAHIKALKSLVSFFCFFVISSCAAFISVPLLILWRDKIGVMVCVGIMAACPSGHAAILISGNAKLRRAVMTILLWAQSSLKVRADHKADSRTLC [TAS2R38]			plasma membrane surface immunostaining intensity (GPCR class: Taste): 123 ± 18
MERGNQTEVGNFLLLGFAEDSDMQLLLHGLFLSMYLVTIIGNLLIILTISSDSHLHTPMYFFLSNLSFADICFTSTTVPKMLVNIQTQSKMITFAGCLTQIFFFIAFGCLDNLLLTMTAYDRFVAICYPLHYTVIMNPRLCGLLVLGSWCISVMGSLLETLTILRLSFCTNMEIPHFFCDPSEVLKLACSDTFINNIVMYFVTIVLGVFPLCGILFSYSQIFSSVLRVSARGQHKAFSTCGSHLSVVSLFYGTGLGVYLSSAVTPPSRTSLAASVMYTMVTPMLNPFIYSLRNKDMKGSLGRLLLRATSLKEGTIAKLS [OR7C2]		131 ± 26	
MAGNNFTEVTVFILSGFANHPELQVSLFLMFLFIYLFTVLGNLGLITLIRMDSQLHTPMYFFLSNLAFIDIFYSSTVTPKALVNFQSNRRSISFVGCFVQMYFFVGLVCCECFLLGSMAYNRYIAICNPLLYSVVMSQKVSNWLGVMPYVIGFTSSLISVWVISSLAFCDSSINHFFCDTTALLALSCVDTFGTEMVSFVLAGFTLLSSLLIITVTYIIIISAILRIQSAAGRQKAFSTCASHLMAVTIFYGSLIFTYLQPDNTSSLTQAQVASVFYTIVIPMLNPLIYSLRNKDVKNALLRVIHRKLFP [OR8I2]		189 ± 85	
MSEEEFYLFKNISSVGPWDGPQYHIAPVWAFYLQAAFMGTVFLIGFPLNAMVLVATLRYKKLRQPLNYILVNVSFGGFLLCIFSVFPVFVASCNGYFVFGRHVCALEGFLGTVAGLVTGWSLAFLAFERYIVICKPFGNFRFSSKHALTVVLATWTIGIGVSIPPFFGWSRFIPEGLQCSCGPDWYTVGTKYRSESYTWFLFIFCFIVPLSLICFSYTQLLRALKAVAAQQQESATTQKAEREVSRMVVVMVGSFCVCYVPYAAFAMYMVNNRNHGLDLRLVTIPSFFSKSACIYNPIIYCFMNKQFQACIMKMVCGKAMTDESDTCSSQKTEVSTVSSTQVGPN [OPN1SW]	2770 ± 310		
MLPDWKSSLILMAYIIIFLTGLPANLLALRAFVGRIRQPQPAPVHILLLSLTLADLLLLLLLPFKIIEAASNFRWYLPKVVCALTSFGFYSSIYCSTWLLAGISIERYLGVAFPVQYKLSRRPLYGVIAALVAWVMSFGHCTIVIIVQYLNTTEQVRSGNEITCYENFTDNQLDVVLPVRLELCLVLFFIPMAVTIFCYWRFVWIMLSQPLVGAQRRRRAVGLAVVTLLNFLVCFGPYNVSHLVGYHQRKSPWWRSIAVVFSSLNASLDPLLFYFSSSVVRRAFGRGLQVLRNQGSSLLGRRGKDTAEGTNEDRGVGQGEGMPSSDFTTE [FFAR2]	3600 ± 470		
MKMLTRLQVLTLALFSKGFLLSLGDHNFLRREIKIEGDLVLGGLFPINEKGTGTEECGRINEDRGIQRLEAMLFAIDEINKDDYLLPGVKLGVHILDTCSRDTYALEQSLEFVRASLTKVDEAEYMCPDGSYAIQENIPLLIAGVIGGSYSSVSIQVANLLRLFQIPQISYASTSAKLSDKSRYDYFARTVPPDFYQAKAMAEILRFFNWTYVSTVASEGDYGETGIEAFEQEARLRNICIATAEKVGRSNIRKSYDSVIRELLQKPNARVVVLFMRSDDSRELIAAASRANASFTWVASDGWGAQESIIKGSEHVAYGAITLELASQPVRQFDRYFQSLNPYNNHRNPWFRDFWEQKFQCSLQNKRNHRRVCDKHLAIDSSNYEQESKIMFVVNAVYAMAHALHKMQRTLCPNTTKLCDAMKILDGKKLYKDYLLKINFTAPFNPNKDADSIVKFDTFGDGMGRYNVFNFQNVGGKYSYLKVGHWAETLSLDVNSIHWSRNSVPTSQCSDPCAPNEMKNMQPGDVCCWICIPCEPYEYLADEFTCMDCGSGQWPTADLTGCYDLPEDYIRWEDAWAIGPVTIACLGFMCTCMVVTVFIKHNNTPLVKASGRELCYILLFGVGLSYCMTFFFIAKPSPVICALRRLGLGSSFAICYSALLTKTNCIARIFDGVKNGAQRPKFISPSSQVFICLGLILVQIVMVSVWLILEAPGTRRYTLAEKRETVILKCNVKDSSMLISLTYDVILVILCTVYAFKTRKCPENFNEAKFIGFTMYTTCIIWLAFLPIFYVTSSDYRVQTTTMCISVSLSGFVVLGCLFAPKVHIILFQPQKNVVTHRLHLNRFSVSGTGTTYSQSSASTYVPTVCNGREVLDSTTSSL [GRM3]			plasma membrane surface immunostaining intensity (GPCR class: C): 6390 ± 16
MNSENLTRAAVAPAEFVLLGITNRWDLRVALFLTCLPVYLVSLLGNMGMALLIRMDARLHTPMYFFLANLSLLDACYSSAIGPKMLVDLLLPRATIPYTACALQMFVFAGLADTECCLLAAMAYDRYVAIRNPLLYTTAMSQRLCLALLGASGLGGAVSAFVHTTLTFRLSFCRSRKINSFFCDIPPLLAISCSDTSLNELLLFAICGFIQTATVLAITVSYGFIAGAVIHMRSVEGSRRAASTGGSHLTAVAMMYGTLIFMYLRPSSSYALDTDKMASVFYTLVIPSLNPLIYSLRNKEVKEALRQTWSRFHCPGQGSQ [OR5C1]		177 ± 14	
MGGRVFLAFCVWLTLPGAETQDSRGCARWCPQNSSCVNATACRCNPGFSSFSEIITTPTETCDDINECATPSKVSCGKFSDCWNTEGSYDCVCSPGYEPVSGAKTFKNESENTCQDVDECQQNPRLCKSYGTCVNTLGSYTCQCLPGFKFIPEDPKVCTDVNECTSGQNPCHSSTHCLNNVGSYQCRCRPGWQPIPGSPNGPNNTVCEDVDECSSGQHQCDSSTVCFNTVGSYSCRCRPGWKPRHGIPNNQKDTVCEDMTFSTWTPPPGVHSQTLSRFFDKVQDLGRDSKTSSAEVTIQNVIKLVDELMEAPGDVEALAPPVRHLIATQLLSNLEDIMRILAKSLPKGPFTYISPSNTELTLMIQERGDKNVTMGQSSARMKLNWAVAAGAEDPGPAVAGILSIQNMTTLLANASLNLHSKKQAELEEIYESSIRGVQLRRLSAVNSIFLSHNNTKELNSPILFAFSHLESSDGEAGRDPPAKDVMPGPRQELLCAFWKSDSDRGGHWATEGCQVLGSKNGSTTCQCSHLSSFAILMAHYDVEDWKLTLITRVGLALSLFCLLLCILTFLLVRPIQGSRTTIHLHLCICLFVGSTIFLAGIENEGGQVGLRCRLVAGLLHYCFLAAFCWMSLEGLELYFLVVRVFQGQGLSTRWLCLIGYGVPLLIVGVSAAIYSKGYGRPRYCWLDFEQGFLWSFLGPVTFIILCNAVIFVTTVWKLTQKFSEINPDMKKLKKARALTITAIAQLFLLGCTWVFGLFIFDDRSLVLTYVFTILNCLQGAFLYLLHCLLNKKVREEYRKWACLVAGGSKYSEFTSTTSGTGHNQTRALRASESGI [ADGRE5]			plasma membrane surface immunostaining intensity (GPCR class: B): 6420 ± 110
MANITRMANHTGKLDFILMGLFRRSKHPALLSVVIFVVFLKALSGNAVLILLIHCDAHLHSPMYFFISQLSLMDMAYISVTVPKMLLDQVMGVNKVSAPECGMQMFLYLTLAGSEFFLLATMAYDRYVAICHPLRYPVLMNHRVCLFLASGCWFLGSVDGFMLTPITMSFPFCRSWEIHHFFCEVPAVTILSCSDTSLYETLMYLCCVLMLLIPVTIISSSYLLILLTVHRMNSAEGRKKAFATCSSHLTVVILFYGAAVYTYMLPSSYHTPEKDMMVSVFYTILTPVLNPLIYSLRNKDVMGALKKMLTVRFVL [OR2T5]		121 ± 14	
MGNCLHRAELSPSTENSSQLDFEDVWNSSYGVNDSFPDGDYGANLEAAAPCHSCNLLDDSALPFFILTSVLGILASSTVLFMLFRPLFRWQLCPGWPVLAQLAVGSALFSIVVPVLAPGLGSTRSSALCSLGYCVWYGSAFAQALLLGCHASLGHRLGAGQVPGLTLGLTVGIWGVAALLTLPVTLASGASGGLCTLIYSTELKALQATHTVACLAIFVLLPLGLFGAKGLKKALGMGPGPWMNILWAWFIFWWPHGVVLGLDFLVRSKLLLLSTCLAQQALDLLLNLAEALAILHCVATPLLLALFCHQATRTLLPSLPLPEGWSSHLDTLGSKS [ACKR1]	5030 ± 340		
MLGLNHTSMSEFILVGFSAFPHLQLMLFLLFLLMYLFTLLGNLLIMATVWSERSLHTPMYLFLCVLSVSEILYTVAIIPRMLADLLSTQRSIAFLACASQMFFSFSFGFTHSFLLTVMGYDRYVAICHPLRYNVLMSPRGCACLVGCSWAGGSVMGMVVTSAIFQLTFCGSHEIQHFLCHVPPLLKLACGNNVPAVALGVGLVCIMALLGCFLLILLSYAFIVADILKIPSAEGRNKAFSTCASHLIVVIVHYGFASVIYLKPKGPHSQEGDTLMATTYAVLTPFLSPIIFSLRNKELKVAMKRTFLSTLYSSGT [OR10H2]		112 ± 22	
MLRLFYFSAIIASVILNFVGIIMNLFITVVNCKTWVKSHRISSSDRILFSLGITRFLMLGLFLVNTIYFVSSNTERSVYLSAFFVLCFMFLDSSSVWFVTLLNILYCVKITNFQHSVFLLLKRNISPKIPRLLLACVLISAFTTCLYITLSQASPFPELVTTRNNTSFNISEGILSLVVSLVLSSSLQFIINVTSASLLIHSLRRHIQKMQKNATGFWNPQTEAHVGAMKLMVYFLILYIPYSVATLVQYLPFYAGMDMGTKSICLIFATLYSPGHSVLIIITHPKLKTTAKKILCFKK [TAS2R4]			plasma membrane surface immunostaining intensity (GPCR class: Taste): 139 ± 19
MLRNGSIVTEFILVGFQQSSTSTRALLFALFLALYSLTMAMNGLIIFITSWTDPKLNSPMYFFLGHLSLLDVCFITTTIPQMLIHLVVRDHIVSFVCCMTQMYFVFCVGVAECILLAFMAYDRYVAICYPLNYVPIISQKVCVRLVGTAWFFGLINGIFLEYISFREPFRRDNHIESFFCEAPIVIGLSCGDPQFSLWAIFADAIVVILSPMVLTVTSYVHILATILSKASSSGRGKTFSTCASHLTVVIFLYTSAMFSYMNPHSTHGPDKDKPFSLLYTIITPMCNPIIYSFRNKEIKEAMVRALGRTRLAQPQSV [OR10AD1]		326 ± 140	
MLLETQDALYVALELVIAALSVAGNVLVCAAVGTANTLQTPTNYFLVSLAAADVAVGLFAIPFAITISLGFCTDFYGCLFLACFVLVLTQSSIFSLLAVAVDRYLAICVPLRYKSLVTGTRARGVIAVLWVLAFGIGLTPFLGWNSKDSATNNCTEPWDGTTNESCCLVKCLFENVVPMSYMVYFNFFGCVLPPLLIMLVIYIKIFLVACRQLQRTELMDHSRTTLQREIHAAKSLAMIVGIFALCWLPVHAVNCVTLFQPAQGKNKPKWAMNMAILLSHANSVVNPIVYAYRNRDFRYTFHKIISRYLLCQADVKSGNGQAGVQPALGVGL [ADORA2B]	1240 ± 140		
